Test results taken from the supplement of paper PMC9112550, “Optimization of the antimicrobial peptide Bac7 by deep mutational scanning” (BMC Biology, 2022).

Tested on: Escherichia coli TOP10
Assay: shrunken log2 fold change of peptide-encoding DNA abundance (4.5 h post-induction vs induction); higher = less antimicrobial activity (less host growth inhibition)
Conditions: time post-induction: 4.5 h; library: site-saturation at positions 5, 18, 19, 20
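Also: peptides expressed intracellularly from a pBAD plasmid library in pooled LB shake-flask culture, induced with 0.3% L-arabinose, DNA abundance read by NGS, three biological replicates, DESeq2 with apeglm shrinkage.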

Row | Sequence | shrunken log2 fold change
1 | RRIRLRPPRLPRPRPRPNCMPRP | -0.415
2 | RRIRIRPPRLPRPRPRPRRCPRP | 0.221
3 | RRIRGRPPRLPRPRPRPANHPRP | 0.0248
4 | RRIRARPPRLPRPRPRPCAEPRP | 0.977
5 | RRIRHRPPRLPRPRPRPQNWPRP | 0.0558
6 | RRIRNRPPRLPRPRPRPEIAPRP | -0.0256
7 | RRIRCRPPRLPRPRPRPEKSPRP | 0.0445
8 | RRIRRRPPRLPRPRPRPADDPRP | 0.213
9 | RRIRLRPPRLPRPRPRPQILPRP | -0.172
10 | RRIRYRPPRLPRPRPRPLVFPRP | -0.439
11 | RRIRDRPPRLPRPRPRPTNHPRP | -0.247
12 | RRIRLRPPRLPRPRPRPIIEPRP | -0.171
13 | RRIRYRPPRLPRPRPRPRHMPRP | -0.55
14 | RRIRTRPPRLPRPRPRPQYTPRP | -0.697
15 | RRIRMRPPRLPRPRPRPIDDPRP | -0.0846
16 | RRIRCRPPRLPRPRPRPDMNPRP | -0.312
17 | RRIRNRPPRLPRPRPRPESNPRP | 0.0856
18 | RRIRFRPPRLPRPRPRPERNPRP | -0.184
19 | RRIRPRPPRLPRPRPRPHNYPRP | -0.631
20 | RRIRPRPPRLPRPRPRPCAAPRP | 0.888
21 | RRIRIRPPRLPRPRPRPCAYPRP | -0.0396
22 | RRIRWRPPRLPRPRPRPAARPRP | 0.622
23 | RRIRHRPPRLPRPRPRPLVHPRP | -0.238
24 | RRIRKRPPRLPRPRPRPYDPPRP | 0.0113
25 | RRIRERPPRLPRPRPRPHYNPRP | -1.12

Row | Sequence | shrunken log2 fold change
26 | RRIRIRPPRLPRPRPRPGKIPRP | -0.0443
27 | RRIRLRPPRLPRPRPRPEAIPRP | 0.0246
28 | RRIRPRPPRLPRPRPRPVCNPRP | -0.141
29 | RRIRARPPRLPRPRPRPIYVPRP | -0.25
30 | RRIRIRPPRLPRPRPRPKPIPRP | -0.0437
31 | RRIRMRPPRLPRPRPRPVKAPRP | -0.0481
32 | RRIRARPPRLPRPRPRPWNLPRP | -0.0204
33 | RRIRARPPRLPRPRPRPQRLPRP | 0.247
34 | RRIRKRPPRLPRPRPRPQFYPRP | -0.555
35 | RRIRWRPPRLPRPRPRPHARPRP | 0.516
36 | RRIRNRPPRLPRPRPRPCLFPRP | -0.608
37 | RRIRTRPPRLPRPRPRPSVQPRP | -0.0749
38 | RRIRNRPPRLPRPRPRPTNDPRP | 0.0554
39 | RRIRRRPPRLPRPRPRPDKRPRP | -0.0396
40 | RRIRCRPPRLPRPRPRPCHPPRP | -0.348
41 | RRIRKRPPRLPRPRPRPNIWPRP | 0.519
42 | RRIRERPPRLPRPRPRPAQKPRP | 0.192
43 | RRIRIRPPRLPRPRPRPPGCPRP | 0.354
44 | RRIRNRPPRLPRPRPRPVEVPRP | -0.296
45 | RRIRTRPPRLPRPRPRPKLAPRP | 0.163
46 | RRIRYRPPRLPRPRPRPIFKPRP | -0.133
47 | RRIRKRPPRLPRPRPRPCMEPRP | 0.0223
48 | RRIRHRPPRLPRPRPRPQMAPRP | -0.191
49 | RRIRGRPPRLPRPRPRPMANPRP | 0.057
50 | RRIRKRPPRLPRPRPRPAGSPRP | 0.0961

Row | Sequence | shrunken log2 fold change
51 | RRIRHRPPRLPRPRPRPRFQPRP | 0.00482
52 | RRIRKRPPRLPRPRPRPEDFPRP | 0.24
53 | RRIRMRPPRLPRPRPRPIACPRP | 0.106
54 | RRIRRRPPRLPRPRPRPFTSPRP | -0.0327
55 | RRIRARPPRLPRPRPRPMDDPRP | 0.197
56 | RRIRMRPPRLPRPRPRPNWIPRP | -0.118
57 | RRIRTRPPRLPRPRPRPMAHPRP | -0.161
58 | RRIRSRPPRLPRPRPRPIPFPRP | -0.518
59 | RRIRCRPPRLPRPRPRPKSSPRP | 0.122
60 | RRIRCRPPRLPRPRPRPDPDPRP | -0.141
61 | RRIRDRPPRLPRPRPRPIHKPRP | -0.275
62 | RRIRVRPPRLPRPRPRPGKRPRP | -0.00991
63 | RRIRFRPPRLPRPRPRPISTPRP | -0.24
64 | RRIRCRPPRLPRPRPRPMHEPRP | -0.00208
65 | RRIRMRPPRLPRPRPRPTGIPRP | -0.149
66 | RRIRSRPPRLPRPRPRPGNLPRP | -0.0533
67 | RRIRRRPPRLPRPRPRPMRWPRP | 0.638
68 | RRIRYRPPRLPRPRPRPTQGPRP | 0.0351
69 | RRIRQRPPRLPRPRPRPYYKPRP | -0.962
70 | RRIRSRPPRLPRPRPRPMWFPRP | 0.14
71 | RRIRGRPPRLPRPRPRPCAVPRP | 0.66
72 | RRIRQRPPRLPRPRPRPQAAPRP | 0.0499
73 | RRIRRRPPRLPRPRPRPFVRPRP | -0.174
74 | RRIRTRPPRLPRPRPRPHEMPRP | 0.0124
75 | RRIRLRPPRLPRPRPRPSCTPRP | -0.501

Row | Sequence | shrunken log2 fold change
76 | RRIRWRPPRLPRPRPRPCHCPRP | -0.102
77 | RRIRERPPRLPRPRPRPQSWPRP | 0.104
78 | RRIRSRPPRLPRPRPRPMCEPRP | -0.0274
79 | RRIRIRPPRLPRPRPRPWHCPRP | -0.0926
80 | RRIRPRPPRLPRPRPRPELAPRP | 0.643
81 | RRIRARPPRLPRPRPRPCKVPRP | -0.164
82 | RRIRWRPPRLPRPRPRPQIRPRP | -0.0767
83 | RRIRQRPPRLPRPRPRPCFRPRP | -0.155
84 | RRIRKRPPRLPRPRPRPPKWPRP | 0.0966
85 | RRIRSRPPRLPRPRPRPPPGPRP | 0.891
86 | RRIRARPPRLPRPRPRPKKWPRP | 0.0405
87 | RRIRQRPPRLPRPRPRPLPEPRP | 0.39
88 | RRIRYRPPRLPRPRPRPTEGPRP | -0.96
89 | RRIRMRPPRLPRPRPRPVLIPRP | -0.0938
90 | RRIRVRPPRLPRPRPRPNMGPRP | -0.11
91 | RRIRRRPPRLPRPRPRPLWLPRP | -0.107
92 | RRIRMRPPRLPRPRPRPMLDPRP | 0.722
93 | RRIRRRPPRLPRPRPRPTHVPRP | 0.427
94 | RRIRVRPPRLPRPRPRPWSLPRP | -0.0384
95 | RRIRSRPPRLPRPRPRPVKHPRP | 0.124
96 | RRIRIRPPRLPRPRPRPWTHPRP | -0.0959
97 | RRIRQRPPRLPRPRPRPEPKPRP | 0.244
98 | RRIRRRPPRLPRPRPRPLEDPRP | -0.0161
99 | RRIRTRPPRLPRPRPRPQQTPRP | 0.0814
100 | RRIRGRPPRLPRPRPRPTAWPRP | 1.84

Row | Sequence | shrunken log2 fold change
101 | RRIRKRPPRLPRPRPRPPCPPRP | 0.399
102 | RRIRWRPPRLPRPRPRPHWCPRP | -0.062
103 | RRIRGRPPRLPRPRPRPWWHPRP | -0.22
104 | RRIRKRPPRLPRPRPRPEYPPRP | 0.0134
105 | RRIRMRPPRLPRPRPRPNRTPRP | 0.13
106 | RRIRSRPPRLPRPRPRPPYCPRP | -0.031
107 | RRIRPRPPRLPRPRPRPPKIPRP | 0.0961
108 | RRIRRRPPRLPRPRPRPDLYPRP | 0.0296
109 | RRIRMRPPRLPRPRPRPCHNPRP | -0.355
110 | RRIRERPPRLPRPRPRPTTVPRP | -0.147
111 | RRIRHRPPRLPRPRPRPPGEPRP | 0.418
112 | RRIRKRPPRLPRPRPRPFAWPRP | 0.462
113 | RRIRRRPPRLPRPRPRPDGPPRP | 0.215
114 | RRIRVRPPRLPRPRPRPESQPRP | -0.0489
115 | RRIRLRPPRLPRPRPRPRYQPRP | -0.0283
116 | RRIRWRPPRLPRPRPRPLKHPRP | -0.623
117 | RRIRPRPPRLPRPRPRPGWGPRP | 0.458
118 | RRIRTRPPRLPRPRPRPPQYPRP | -0.108
119 | RRIRFRPPRLPRPRPRPPATPRP | 0.562
120 | RRIRQRPPRLPRPRPRPGICPRP | 0.156
121 | RRIRARPPRLPRPRPRPSWGPRP | 0.0646
122 | RRIRWRPPRLPRPRPRPKMLPRP | 0.149
123 | RRIRPRPPRLPRPRPRPEYRPRP | 0.0278
124 | RRIRKRPPRLPRPRPRPTSDPRP | 0.492
125 | RRIRKRPPRLPRPRPRPEVYPRP | -0.0138
